Publication PMC3622243

Key:
[1] = molecular target: HLA-B27 heterotrimer complexed with the HIV GAG-KK10 L6M escape mutant peptide (human | not stated | HIV); assay: SPR
HLA-A3 heterotrimer = assay: SPR
[2] = molecular target: HLA-B27 free heavy chains generated from immobilised heterotrimers (human); assay: SPR
[3] = molecular target: c67s mutant of HLA-B*2705 expressed by transfected LBL.721.221 cells (human); assay: flow cytometry on cells
[4] = molecular target: HLA-B*2705 expressed by transfected LBL.721.221 cells (human); assay: flow cytometry on cells
[5] = molecular target: HLA-A3 expressed by transfected LBL.721.221 cells (human); assay: flow cytometry on cells
[6] = molecular target: HLA-A2 expressed by transfected LBL.721.221 cells (human); assay: flow cytometry on cells
[7] = molecular target: HLA-B35 expressed by transfected LBL.721.221 cells (human); assay: flow cytometry on cells

Substance | Kd [1] | Kd (HLA-A3 heterotrimer) | Kd [2] | geometric mean fluorescent intensity [3] | geometric mean fluorescent intensity [4] | geometric mean fluorescent intensity after inhibition with HC10 [4] | geometric mean fluorescent intensity after inhibition with W632 [4] | geometric mean fluorescent intensity after isotype control MAbs [4] | geometric mean fluorescent intensity [5] | geometric mean fluorescent intensity [6] | geometric mean fluorescent intensity [7]
LILRB1 incorporating the two immunoglobulin-like domains D1 and D2 (domain or fragment) | 3.93 µM | – | – | – | – | – | – | – | – | – | –
LILRB2 incorporating the two immunoglobulin-like domains D1 and D2 (domain or fragment) | 16 µM | 25.3 µM | 2.6 µM | – | – | – | – | – | – | – | –
Soluble LILRB2Fc incorporating the D1, D2, D3 and D4 domains of LILRB2 (Fc fusion) | – | – | – | 24 | 568 | 244 | 161 | 489 | 107 | 233 | 81
